Primed or numbered codes have the meaning given here. The star is where a group is joined. Dabcyl″ = Dabcyl quencher at the N-terminus, CN(C)c1ccc(/N=N/c2ccc(C(=O)*)cc2)cc1; Flu = fluorescein label on the cysteine side chain; Dabcyl′ = CN(C)c1ccc(/N=N/c2ccc(C(=O)*)cc2)cc1; fluorescein = fluorescein label
Tests used:
Format in all cases: biochemical
[1] = molecular target: T1, collagenase 3 (Homo sapiens, UniProt P45452); test: kcat/Km of fluorescence peptide substrates; conditions: for Col-3 Specificity Constant: fluorescence substrate, + Gel = PRIONEX GELATIN 1:250
[2] = molecular target: T2, stromelysin 1 (Homo sapiens, UniProt P08254); test: kcat/Km of fluorescence peptide substrates; conditions: for reduction of substrate selectivity for stromelysin 1 relative to FlSb1: fluorescence substrates; for Strom1 Selectivity v Col-3: fluorescence substrate, + Gel = PRIONEX GELATIN 1:250
T2 sequence (P08254 100-477): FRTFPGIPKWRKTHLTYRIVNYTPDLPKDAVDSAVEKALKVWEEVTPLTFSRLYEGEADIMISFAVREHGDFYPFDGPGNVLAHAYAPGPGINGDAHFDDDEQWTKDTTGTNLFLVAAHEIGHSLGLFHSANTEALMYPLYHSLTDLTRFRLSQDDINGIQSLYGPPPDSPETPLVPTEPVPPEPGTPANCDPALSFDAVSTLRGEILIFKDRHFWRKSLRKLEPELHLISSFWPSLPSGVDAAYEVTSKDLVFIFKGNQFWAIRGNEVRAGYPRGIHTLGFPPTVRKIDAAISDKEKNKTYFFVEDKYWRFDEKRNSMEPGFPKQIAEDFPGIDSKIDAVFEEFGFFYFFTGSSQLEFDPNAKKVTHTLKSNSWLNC

[3] = molecular target: T1, collagenase 3; test: Inhibition with type II collagen, FlSub3 cleavage; conditions: Time Period 0.85 to 2.10 Hours; 20 uM FlSub3 with bovine type II collagen
Experimental: In a 96 well plate, collagenase 3 (0.013 nM), collagenase 1 (1.25 nM), stromelysin 1 (0.8 nM), gelatinase A (0.025 nM), or gelatinase B (0.008 nM) were reacted with 20 uM FlSub3 in standard assay buffer in the presence of varying concentrations of bovine type II collagen (0.18-44 ug/ml). The type II collagen, a 1 mg/ml stock in 0.5M acetic acid, was transferred into assay buffer by passing the material through a biospin P6 column from Amersham. The reaction was initiated by addition of substrate to enzyme containing either buffer or an appropriate amount of type II collagen. Data points were taken every 15 min over a period of 15 hours using an excitation and emission wavelength of 350 and 485 nm respectively. The usable data (1-6 hours), was taken and the percent inhibition by type II collagen was calculated for each enzyme and plotted as a function of inhibitor concentration and time in the assay. It should be noted that the percent inhibition varies with time as the bovine substrate is consumed during the reaction course.

[4] = molecular target: T3, collagenase 1 (Homo sapiens, UniProt P03956); test: Cleavage of biglycan and type IV collagen by MMPs (gel); conditions: equal concentration of enzyme as col-3
T3 sequence (P03956 100-469): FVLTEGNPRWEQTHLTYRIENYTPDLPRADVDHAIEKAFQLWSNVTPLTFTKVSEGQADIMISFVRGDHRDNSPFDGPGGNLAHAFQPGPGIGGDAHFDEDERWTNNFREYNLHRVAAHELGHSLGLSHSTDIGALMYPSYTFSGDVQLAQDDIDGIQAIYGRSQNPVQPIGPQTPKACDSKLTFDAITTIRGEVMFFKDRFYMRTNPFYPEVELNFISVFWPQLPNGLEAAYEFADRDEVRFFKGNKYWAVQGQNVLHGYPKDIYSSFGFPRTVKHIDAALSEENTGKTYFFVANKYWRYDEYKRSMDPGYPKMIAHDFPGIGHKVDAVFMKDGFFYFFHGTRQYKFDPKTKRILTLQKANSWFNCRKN
Experimental: (§1) Reactions were carried out on a small scale to optimize the enzyme to full length protein ratios. For biglycan, optimum results were obtained with a ratio of 1:100 (20-40 nM col-3 and 4.3 μM biglycan in a 10 μl reaction). For type IV collagen, best results were found with a ratio of 1:50 (28 nM col-3 and 2 μM type IV collagen). For comparison with the other MMPs, an equal concentration of enzyme was used.

[5] = molecular target: T4, gelatinase A (Homo sapiens, UniProt P08253); test: as above; conditions: earlier experiment
T4 sequence (P08253 110-660): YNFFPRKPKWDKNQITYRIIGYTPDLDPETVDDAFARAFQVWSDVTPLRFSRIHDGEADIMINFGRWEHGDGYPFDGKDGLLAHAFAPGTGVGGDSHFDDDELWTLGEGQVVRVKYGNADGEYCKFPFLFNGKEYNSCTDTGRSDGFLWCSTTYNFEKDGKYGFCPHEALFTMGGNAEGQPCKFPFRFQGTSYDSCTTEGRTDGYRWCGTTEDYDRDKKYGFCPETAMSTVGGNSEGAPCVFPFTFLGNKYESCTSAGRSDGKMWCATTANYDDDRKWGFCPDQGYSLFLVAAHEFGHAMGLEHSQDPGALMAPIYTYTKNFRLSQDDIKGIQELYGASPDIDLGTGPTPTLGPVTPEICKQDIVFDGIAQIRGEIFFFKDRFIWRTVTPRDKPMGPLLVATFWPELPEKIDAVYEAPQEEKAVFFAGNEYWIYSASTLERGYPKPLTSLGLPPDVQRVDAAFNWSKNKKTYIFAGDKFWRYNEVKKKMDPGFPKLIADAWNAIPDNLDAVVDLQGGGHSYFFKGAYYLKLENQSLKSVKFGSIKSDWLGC
Experimental: as §1

[6] = molecular target: gelatinase B (Homo sapiens, UniProt P14780); test: as above; conditions: equal concentration of enzyme as col-3
Chain of gelatinase B (P14780 94-707): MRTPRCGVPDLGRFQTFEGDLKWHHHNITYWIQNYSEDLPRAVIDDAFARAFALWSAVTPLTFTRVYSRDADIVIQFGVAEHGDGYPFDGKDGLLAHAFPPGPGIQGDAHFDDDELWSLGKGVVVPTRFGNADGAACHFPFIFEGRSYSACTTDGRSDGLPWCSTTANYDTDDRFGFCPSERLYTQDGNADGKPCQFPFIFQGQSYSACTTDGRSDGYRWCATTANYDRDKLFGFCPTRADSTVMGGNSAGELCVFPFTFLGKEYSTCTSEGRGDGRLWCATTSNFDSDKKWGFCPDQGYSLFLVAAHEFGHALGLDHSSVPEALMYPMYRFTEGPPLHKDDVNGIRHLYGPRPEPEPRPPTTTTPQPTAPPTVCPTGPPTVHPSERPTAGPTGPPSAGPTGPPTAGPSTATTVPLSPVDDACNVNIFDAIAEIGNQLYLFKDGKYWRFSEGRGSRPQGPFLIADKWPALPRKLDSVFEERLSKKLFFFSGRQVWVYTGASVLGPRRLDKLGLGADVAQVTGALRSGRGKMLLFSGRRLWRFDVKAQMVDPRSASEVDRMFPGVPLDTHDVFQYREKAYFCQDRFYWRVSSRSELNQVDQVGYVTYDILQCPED
Experimental: as §1

[7] = molecular target: T2, stromelysin 1; test: as above; conditions: equal concentration of enzyme as col-3
Experimental: as §1

Dab-SYPSGIHLC(Flu)LQR-NH2 ({Dabcyl″}-SYPSGIHLC(Flu)LQR-NH2) [FlSb2, fluorescence substrate based on the sulfate transporter]
less sensitive for collagenase 3 compared to the consensus substrate ([1]; compared to FlSb1): 100 fold | selectivity compared to FlSb1 ([1]; kcat/Km against the five MMPs): less selective

Dabcyl-GPHPFRGC(Flu)-NH2 ({Dabcyl″}-GPHPFRGC(Flu)-NH2) [FISb4]
Col-3 Specificity Constant [1]: 3.27E+04 1/sM | reduction of substrate selectivity for stromelysin 1 relative to FlSb1 [2]: approximately 10 fold

Dabcyl-GPLGMRGC(Fluorescein)-NH2 ({Dabcyl′}-GPLGMRGC(fluorescein)-NH2) [FISb1]
Strom1 Selectivity v Col-3 [2]: 707.5 unitless | Strom1 Selectivity v Col-3 ([2]; listed as Fluorescence Substrate 1): 3665 unitless

Dabcyl-GPVNLHGC(Flu)-NH2 ({Dabcyl″}-GPVNLHGC(Flu)-NH2) [FISb3]
Col-3 Specificity Constant [1]: 4.21E+05 1/sM | reduction of substrate selectivity for stromelysin 1 relative to FlSb1 [2]: approximately 10 fold | Col-3 Specificity Constant [3]: 1.11E+06 1/sM

type IV collagen: full length protein digested with collagenase 3 and other MMPs
cleavage of full length protein by collagenase 1 [4]: processed | cleavage of full length protein by gelatinase A [5]: No detectable cleavage | cleavage of full length protein by gelatinase B [6]: processed

B1: biglycan: proteoglycan, full length protein digested with collagenase 3 and other MMPs (protein, UniProt P21810 38-368, looked up)
Biglycan: DEEASGADTSGVLDPDSVTPTYSAMCPFGCHCHLRVVQCSDLGLKSVPKEISPDTTLLDLQNNDISELRKDDFKGLQHLYALVLVNNKISKIHEKAFSPLRKLQKLYISKNHLVEIPPNLPSSLVELRIHDNRIRKVPKGVFSGLRNMNCIEMGGNPLENSGFEPGAFDGLKLNYLRISEAKLTGIPKDLPETLNELHLDHNKIQAIELEDLLRYSKLYRLGLGHNQIRMIENGSLSFLPTLRELHLDNNKLARVPSGLPDLKLLQVVYLHSNNITKVGVNDFCPMGFGVKRAYYNGISLFNNPVPYWEVQPATFRCVTDRLAIQFGNYKK
cleavage of full length protein by gelatinase B [6]: able to degrade | cleavage of full length protein by stromelysin 1 [7]: able to degrade
